This data set in a line: total protein half-life in vivo (active degradation + dilution); higher = more stable protein.
Setting [1] is: E. coli NCM3722 delta-clpP delta-lon delta-hslV, growth: N-lim chemostat, doubling time 6 h.
The mark [2] stands for this setting: E. coli NCM3722 delta-clpP, growth: N-lim chemostat, doubling time 6 h.
Where [3] appears, read: E. coli NCM3722 delta-hslV, growth: N-lim chemostat, doubling time 6 h.
The mark [4] stands for this setting: E. coli NCM3722 delta-lon, growth: N-lim chemostat, doubling time 6 h.
[5] abbreviates: E. coli NCM3722 delta-smpB, growth: N-lim chemostat, doubling time 6 h.
Where [6] appears, read: wild type E. coli NCM3722, growth: C-lim chemostat, doubling time 3 h.
Setting [7] is: wild type E. coli NCM3722, growth: C-lim chemostat, doubling time 6 h.
Where [8] appears, read: wild type E. coli NCM3722, growth: C-lim chemostat, doubling time 12 h.
Where [9] appears, read: wild type E. coli NCM3722, growth: N-lim chemostat, doubling time 6 h.
Where [10] appears, read: wild type E. coli NCM3722, growth: N-lim chemostat, doubling time 12 h.
Where [11] appears, read: wild type E. coli NCM3722, growth: P-lim chemostat, doubling time 6 h.
Where [12] appears, read: wild type E. coli NCM3722, growth: P-lim chemostat, doubling time 12 h.

± gives the standard deviation of the averaged measurements.

P0ABR5, sequence (chain, as listed by the source): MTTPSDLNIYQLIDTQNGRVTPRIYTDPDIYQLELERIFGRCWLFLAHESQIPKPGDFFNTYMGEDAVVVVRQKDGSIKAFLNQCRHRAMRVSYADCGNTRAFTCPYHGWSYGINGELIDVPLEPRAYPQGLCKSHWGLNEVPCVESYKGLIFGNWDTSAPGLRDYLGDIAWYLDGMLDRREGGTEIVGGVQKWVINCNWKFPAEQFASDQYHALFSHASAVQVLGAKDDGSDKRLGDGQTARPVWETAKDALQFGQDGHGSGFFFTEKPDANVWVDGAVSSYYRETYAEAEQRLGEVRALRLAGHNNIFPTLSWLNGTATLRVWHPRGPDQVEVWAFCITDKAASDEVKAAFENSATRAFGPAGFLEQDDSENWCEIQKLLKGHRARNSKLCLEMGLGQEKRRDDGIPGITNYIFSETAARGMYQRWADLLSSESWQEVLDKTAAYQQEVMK

With “MKRNAKTIIAGMIALAISHTAMADDIKVAVVGAMSGPIAQWGDMEFNGARQAIKDINAKGGIKGDKLVGVEYDDACDPKQAVAVANKIVNDGIKYVIGHLCSSSTQPASDIYEDEGILMISPGATNPELTQRGYQHIMRTAGLDSSQGPTAAKYILETVKPQRIAIIHDKQQYGEGLARSVQDGLKAANANVVFFDGITAGEKDFSALIARLKKENIDFVYYGGYYPEMGQMLRQARSVGLKTQFMGPEGVGNASLSNIAGDAAEGMLVTMPKRYDQDPANQGIVDALKADKKDPSGPYVWITYAAVQSLATALERTGSDEPLALVKDLKANGANTVIGPLNWDEKGDLKGFDFGVFQWHADGSSTAAK”, the “total protein half-life in vivo” value was found to be 5.85 ± 0.11 h under setting [1]; 6.16 ± 0.79 h under setting [2]; 6.48 ± 0.55 h under setting [3]; 5.84 ± 0.097 h under setting [4]; 6.01 ± 0.47 h under setting [5]; 3.077 ± 0.0084 h under setting [6]. Besides, the “total protein half-life in vivo” value was found to be 6.134 ± 0.039 h under setting [7]; 11.9 ± 0.26 h under setting [8]; 5.87 ± 0.27 h under setting [9]; 12.2 ± 0.64 h under setting [10]; 5.65 ± 0.13 h under setting [11]; 14.3 ± 1.1 h under setting [12].

Regarding “METVAYADFARLEMRVGKIVEVKRHENADKLYIVQVDVGQKTLQTVTSLVPYYSEEELMGKTVVVLCNLQKAKMRGETSECMLLCAETDDGSESVLLTPERMMPAGVRVV”, the “total protein half-life in vivo” value under setting [1] came to 5.14 ± 0.11 h; the “total protein half-life in vivo” value under setting [2] is 5.33 h; the “total protein half-life in vivo” value under setting [6] is 2.97 ± 0.48 h; the “total protein half-life in vivo” value under setting [7] was 4.74 ± 0.58 h; the “total protein half-life in vivo” value under setting [8] was found to be 8.53 ± 0.87 h.

On to P0ABR5, for which the “total protein half-life in vivo” value reads like this: under setting [1], 6.36 ± 1.3 h; under setting [6], 1.02 h; under setting [7], 2.09 h; under setting [8], 3.87 ± 2.6 h; under setting [11], 1.661 ± 0.003 h; under setting [12], 2.48 ± 0.059 h.

As for “MNIRDLEYLVALAEHRHFRRAADSCHVSQPTLSGQIRKLEDELGVMLLERTSRKVLFTQAGMLLVDQARTVLREVKVLKEMASQQGETMSGPLHIGLIPTVGPYLLPHIIPMLHQTFPKLEMYLHEAQTHQLLAQLDSGKLDCVILALVKESEAFIEVPLFDEPMLLAIYEDHPWANRECVPMADLAGEKLLMLEDGHCLRDQAMGFCFEAGADEDTHFRATSLETLRNMVAAGSGITLLPALAVPPERKRDGVVYLPCIKPEPRRTIGLVYRPGSPLRSRYEQLAEAIRARMDGHFDKVLKQAV [P0ACQ4]”, the “total protein half-life in vivo” value by setting is: under setting [1], 6.42 ± 0.14 h; under setting [2], 6.57 ± 1.4 h; under setting [3], 4.79 ± 0.37 h; under setting [4], 4.56 ± 0.12 h; under setting [5], 4.11 ± 0.24 h; under setting [6], 2.62 ± 0.37 h. Also, the “total protein half-life in vivo” value by setting is: under setting [7], 5.1 ± 0.76 h; under setting [8], 9.67 ± 2.1 h; under setting [9], 4.51 ± 0.26 h; under setting [10], 10.4 ± 2.9 h; under setting [11], 4.768 ± 0.012 h; under setting [12], 9.98 ± 0.13 h.

Turning to “MAKLTLQEQLLKAGLVTSKKAAKVERTAKKSRVQAREARAAVEENKKAQLERDKQLSEQQKQAALAKEYKAQVKQLIEMNRITIANGDIGFNFTDGNLIKKIFVDKLTQAQLINGRLAIARLLVDNNSEGEYAIIPASVADKIAQRDASSIVLHSALSAEEQDEDDPYADFKVPDDLMW”, the “total protein half-life in vivo” value turned out to be 5.344 ± 0.0096 h under setting [1]; 4.88 ± 0.16 h under setting [2]; 2.22 ± 0.1 h under setting [3]; 2.88 h under setting [4]; 2.37 h under setting [5]; 2.24 ± 0.012 h under setting [6]. Moreover, the “total protein half-life in vivo” value by setting is: under setting [7], 3.23 ± 0.14 h; under setting [8], 4.09 ± 0.13 h; under setting [9], 1.95 ± 0.37 h; under setting [10], 2.45 ± 0.67 h; under setting [11], 2.17 ± 0.44 h; under setting [12], 4.41 ± 0.084 h.

“MDAKQRIARRVAQELRDGDIVNLGIGLPTMVANYLPEGIHITLQSENGFLGLGPVTTAHPDLVNAGGQPCGVLPGAAMFDSAMSFALIRGGHIDACVLGGLQVDEEANLANWVVPGKMVPGMGGAMDLVTGSRKVIIAMEHCAKDGSAKILRRCTMPLTAQHAVHMLVTELAVFRFIDGKMWLTEIADGCDLATVRAKTEARFEVAADLNTQRGDL”: the “total protein half-life in vivo” value was 0.206 h under setting [4] and 1.83 h under setting [9].

Take “MSKLDTFIQHAVNAVPVSGTSLISSLYGDSLSHRGGEIWLGSLAALLEGLGFGERFVRTALFRLNKEGWLDVSRIGRRSFYSLSDKGLRLTRRAESKIYRAEQPAWDGKWLLLLSEGLDKSTLADVKKQLIWQGFGALAPSLMASPSQKLADVQTLLHEAGVADNVICFEAQIPLALSRAALRARVEECWHLTEQNAMYETFIQSFRPLVPLLKEAADELTPERAFHIQLLLIHFYRRVVLKDPLLPEELLPAHWAGHTARQLCINIYQRVAPAALAFVSEKGETSVGELPAPGSLYFQRFGGLNIEQEALCQFIR”: the “total protein half-life in vivo” value was 4.03 ± 0.075 h under setting [3]; 4.2 ± 0.044 h under setting [4]; 4.07 ± 0.076 h under setting [5]; 2.77 ± 0.17 h under setting [6]; 5.07 ± 0.31 h under setting [7]; 8.39 ± 0.13 h under setting [8]. In addition, the “total protein half-life in vivo” value runs as follows: under setting [9], 4.07 ± 0.22 h; under setting [10], 6.84 ± 0.13 h; under setting [11], 4.82 ± 0.088 h; under setting [12], 8.96 ± 0.47 h.

“MSGDILQTPDAPKPQGALDNYFKITARGSTVRQEVLAGLTTFLAMVYSVIVVPGMLGKAGFPPAAVFVATCLVAGFGSLLMGLWANLPMAIGCAISLTAFTAFSLVLGQQISVPVALGAVFLMGVIFTAISVTGVRTWILRNLPMGIAHGTGIGIGLFLLLIAANGVGMVIKNPIEGLPVALGAFTSFPVMMSLLGLAVIFGLEKCRVPGGILLVIIAISIIGLIFDPAVKYHGLVAMPSLTGEDGKSLIFSLDIMGALQPTVLPSVLALVMTAVFDATGTIRAVAGQANLLDKDNQIINGGKALTSDSVSSIFSGLVGAAPAAVYIESAAGTAAGGKTGLTATVVGALFLLILFLSPLSFLIPGYATAPALMYVGLLMLSNVSKLDFNDFIDAMAGLVCAVFIVLTCNIVTGIMLGFVTLVVGRVFAREWQKLNIGTVIITAALVAFYAGGWAI”: the “total protein half-life in vivo” value runs as follows: under setting [1], 4.51 ± 0.38 h; under setting [2], 5.04 ± 0.2 h; under setting [3], 5.05 h; under setting [4], 4.88 h; under setting [5], 4.98 ± 0.49 h; under setting [6], 3.28 ± 0.56 h. For the same substance, the “total protein half-life in vivo” value is 4.99 ± 0.19 h under setting [7]; 4.98 h under setting [9]; 9.21 ± 0.52 h under setting [10]; over 8 h under setting [11]; 9.89 ± 0.52 h under setting [12].

(Values after the supplement of paper PMC11246515.)
